Laboratory results taken from US20190071480A1 (Biogen, published 2019).

Legend:
[1] = biological target: T1, extracellular domain of activin receptor type IIB (ActRIIBecd), biotinylated (Homo sapiens (Human), UniProt Q13705 27-117, amino-biotinylated with amine-PEG3-Biotin); assay: BIAcore SPR as Example 5 (method not restated); SD ±1.60 nM
T1 construct: immobilised on a streptavidin-coated sensor chip; also called biotinylated ActRIIBecd; extracellular domain of ActRIIB
T1 sequence: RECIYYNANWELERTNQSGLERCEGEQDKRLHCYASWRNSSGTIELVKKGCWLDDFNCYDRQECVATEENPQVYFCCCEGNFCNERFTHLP
Method: (§1) Biosensor experiments. In one embodiment, experiments were performed on a BIAcore™ T100/T200 instrument (Pharmacia Biosensor AB) in the multichannel mode (serial flow path involving flow cells 1+2+3+4). Flow rate was 10 μl/min; temperature was 25° C.; and data were recorded at 2.5 points/s. All four segments of a sensor chip CMS were coated with streptavidin (Sigma) to a density of 2000 pg/mm² (2000 resonance units) by the aminocoupling procedure. ActRIIBecd (10 mg) and amine-PEG3-Biotin (10 mg, Pierce, Rockford, Ill.) were dissolved in 200 μl H₂O and 10 mg NaCNBH₃ was added to prepare biotinylated ActRIIBecd. The reaction mixture was heated at 70° C. for 24 h, after that a further 10 mg NaCNBH₃ was added and the reaction was heated at 70° C. for another 24 h. After cooling to room temperature, the mixture was desalted with the spin column (3,000 molecular weight cut off (MWCO)). […] Sensograms were recorded during flow of the analyte (the ActRIIBecd-associated polypeptides (i.e., domains) as previously described) first through flow cell 1 (control) then through flow cell 2 (biotinylated ActRIIBecd). […] The sensograms obtained at 1.11, 3.33, 10, 30, and 90 nM analyte were evaluated for equilibrium binding, association rate, and dissociation rate by using the programs supplied with the instrument (BIA evaluation 2.1; Software Handbook. 1995; Pharmacia Biosensor AB).

[2] = biological target: T1, extracellular domain of activin …; assay: Mean KD column of Table 5; method not restated (BIAcore as Example 5); species also listed in Table 4
In short: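 Surface plasmon resonance on an immobilised biotinylated receptor ectodomain (streptavidin capture, 50-250 RU) measured binding of polypeptides at 1.11, 3.33, 10, 30 and 90 nM. Flow cell 1 served as blank.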

[3] = biological target: T1, extracellular domain of activin …; assay: BIAcore SPR as Example 5 (method not restated); SD ±1.38 nM
Method: as §1

[4] = biological target: T1, extracellular domain of activin …; assay: BIAcore SPR as Example 5 (method not restated); SD ±1.05 nM
Method: as §1

[5] = biological target: T1, extracellular domain of activin …; assay: BIAcore SPR as Example 5 (method not restated); SD ±2.35 nM
Method: as §1

[6] = biological target: T1, extracellular domain of activin …; assay: BIAcore SPR, biotinylated ActRIIBecd on chip; SD ±18.12 nM
Method: as §1

[7] = biological target: T1, extracellular domain of activin …; assay: BIAcore SPR as Example 5 (method not restated); SD ±0.67 nM
Method: as §1

[8] = biological target: T1, extracellular domain of activin …; assay: BIAcore SPR as Example 5 (method not restated); SD ±3.57 nM
Method: as §1

[9] = biological target: T1, extracellular domain of activin …; assay: BIAcore SPR as Example 5 (method not restated); SD ±2.66 nM
Method: as §1

[10] = biological target: T1, extracellular domain of activin …; assay: BIAcore SPR as Example 5 (method not restated); SD ±1.30 nM
Method: as §1

[11] = biological target: T1, extracellular domain of activin …; assay: BIAcore SPR as Example 5 (method not restated); SD ±1.13 nM
Method: as §1

[12] = biological target: T1, extracellular domain of activin …; assay: BIAcore SPR as Example 5 (method not restated); SD ±1.76 nM
Method: as §1

[13] = biological target: T1, extracellular domain of activin …; assay: BIAcore SPR as Example 5 (method not restated); SD ±1.43 nM
Method: as §1

[14] = biological target: T1, extracellular domain of activin …; assay: BIAcore SPR as Example 5 (method not restated); SD ±2.07 nM
Method: as §1

[15] = biological target: T1, extracellular domain of activin …; assay: BIAcore SPR as Example 5 (method not restated); SD ±0.75 nM
Method: as §1

[16] = biological target: T1, extracellular domain of activin …; assay: BIAcore SPR as Example 5 (method not restated); SD ±1.39 nM
Method: as §1

[17] = biological target: T1, extracellular domain of activin …; assay: BIAcore SPR as Example 5 (method not restated); SD ±1.71 nM
Method: as §1

B1: SEQ ID NO: 276, cysteine pairs C67-C71^a, C8-C41^a, C9-C43^a, C109-C109^b (designed binder)
chain: NSKIPKACCVPTELSAISMLYLDENEKVVLKNYQDMVVEGCGCRVDFSDVGWNDWIVAPPGYHAFYCHGECPFPLADHLNSTNHAIVQTLVNSVAQAKHKQRKRLKSSCKRHPLY
modifications: disulfides C67-C71 (intra), C8-C41 (intra), C9-C43 (intra), C109-C109 (inter)
notes: homodimer by intermolecular disulfide
Kd [1]: 5.71 nM | Kd [2]: 5.71 nM

B2: SEQ ID NO: 276, cysteine pairs C67-C71^a, C8-C43^b, C9-C41^b, C109-C109^b (designed binder)
chain: NSKIPKACCVPTELSAISMLYLDENEKVVLKNYQDMVVEGCGCRVDFSDVGWNDWIVAPPGYHAFYCHGECPFPLADHLNSTNHAIVQTLVNSVAQAKHKQRKRLKSSCKRHPLY
modifications: disulfides C67-C71 (intra), C8-C43 (inter), C9-C41 (inter), C109-C109 (inter)
notes: as for B1
Kd [3]: 6.31 nM | Kd [2]: 6.31 nM

B3: SEQ ID NO: 276, cysteine pairs C67-C71^a, C8-C43^a, C9-C41^a, C109-C109^b (designed binder)
chain: NSKIPKACCVPTELSAISMLYLDENEKVVLKNYQDMVVEGCGCRVDFSDVGWNDWIVAPPGYHAFYCHGECPFPLADHLNSTNHAIVQTLVNSVAQAKHKQRKRLKSSCKRHPLY
modifications: disulfides C67-C71 (intra), C8-C43 (intra), C9-C41 (intra), C109-C109 (inter)
notes: as for B1
Kd [4]: 7.66 nM | Kd [2]: 7.66 nM

B4: SEQ ID NO: 276, cysteine pairs C8-C9^a (designed binder)
chain: NSKIPKACCVPTELSAISMLYLDENEKVVLKNYQDMVVEGCGCRVDFSDVGWNDWIVAPPGYHAFYCHGECPFPLADHLNSTNHAIVQTLVNSVAQAKHKQRKRLKSSCKRHPLY
modifications: disulfides C8-C9 (intra)
Kd [5]: 27.9 nM | Kd [2]: 27.9 nM

VDFSDVGWNDWAVAPPGYHAFYCHGECPFPLADHLNSDNHAIVQTLVNSV [Clone No. 16 domain (ActRIIBecd-associated polypeptide)]
Kd [6]: 56 nM

B5: SEQ ID NO: 292, cysteine pairs C15-C80^a, C44-C112^a, C48-C114^a, C79-C79^b (designed binder)
chain: GQAKRKGYKRLKSSCKRHPLYVDFKDVGWNDHAVAPPGYHAFYCHGECPFPLADHLNSDNHAIVQTKVNSVNSKDPKACCVPTELSAPSPLYLDENEKPVLKNYQDMVVHGCGCR
modifications: disulfides C15-C80 (intra), C44-C112 (intra), C48-C114 (intra), C79-C79 (inter)
notes: as for B1
Kd [7]: 4.77 nM | Kd [2]: 4.77 nM

B6: SEQ ID NO: 292, cysteine pairs C15-C15^b, C79-C114^a, C80-C112^a, C44-C48^a (designed binder)
chain: GQAKRKGYKRLKSSCKRHPLYVDFKDVGWNDHAVAPPGYHAFYCHGECPFPLADHLNSDNHAIVQTKVNSVNSKDPKACCVPTELSAPSPLYLDENEKPVLKNYQDMVVHGCGCR
modifications: disulfides C15-C15 (inter), C79-C114 (intra), C80-C112 (intra), C44-C48 (intra)
notes: as for B1
Kd [8]: 5.81 nM | Kd [2]: 5.81 nM

B7: SEQ ID NO: 292, cysteine pairs C79-C80^a (designed binder)
chain: GQAKRKGYKRLKSSCKRHPLYVDFKDVGWNDHAVAPPGYHAFYCHGECPFPLADHLNSDNHAIVQTKVNSVNSKDPKACCVPTELSAPSPLYLDENEKPVLKNYQDMVVHGCGCR
modifications: disulfides C79-C80 (intra)
Kd [9]: 29 nM | Kd [2]: 29 nM

B8: SEQ ID NO: 292, cysteine pairs C80-C114^b, C79-C112^b, C44-C48^a (designed binder)
chain: GQAKRKGYKRLKSSCKRHPLYVDFKDVGWNDHAVAPPGYHAFYCHGECPFPLADHLNSDNHAIVQTKVNSVNSKDPKACCVPTELSAPSPLYLDENEKPVLKNYQDMVVHGCGCR
modifications: disulfides C80-C114 (inter), C79-C112 (inter), C44-C48 (intra)
notes: as for B1
Kd [10]: 5.54 nM | Kd [2]: 5.54 nM

B9: SEQ ID NO: 284, cysteine pairs C59-C59^b, C8-C41^a, C9-C43^a, C88-C92^a (designed binder)
chain: NSKIPKACCVPTELSAISMLYLDENEKVVLKNYQDMVVEGCGCRAQAKHKQRKRLKSSCKRHPLYVDFSDVGWNDWIVAPPGYHAFYCHGECPFPLADHLNSTNHAIVQTLVNSV
modifications: disulfides C59-C59 (inter), C8-C41 (intra), C9-C43 (intra), C88-C92 (intra)
notes: as for B1
Kd [11]: 4.89 nM | Kd [2]: 4.89 nM

B10: SEQ ID NO: 284, cysteine pairs C59-C59^b, C8-C41^b, C9-C43^b, C88-C92^a (designed binder)
chain: NSKIPKACCVPTELSAISMLYLDENEKVVLKNYQDMVVEGCGCRAQAKHKQRKRLKSSCKRHPLYVDFSDVGWNDWIVAPPGYHAFYCHGECPFPLADHLNSTNHAIVQTLVNSV
modifications: disulfides C59-C59 (inter), C8-C41 (inter), C9-C43 (inter), C88-C92 (intra)
notes: as for B1
Kd [12]: 5.79 nM | Kd [2]: 5.79 nM

B11: SEQ ID NO: 308, cysteine pairs C59-C59^b, C8-C41^a, C9-C43^a, C88-C92^a (designed binder)
chain: NSKDPKACCVPTELSAPSPLYLDENEKPVLKNYQDMVVHGCGCRGQAKRKGYKRLKSSCKRHPLYVDFKDVGWNDHAVAPPGYHAFYCHGECPFPLADHLNSDNHAIVQTKVNSV
modifications: disulfides C59-C59 (inter), C8-C41 (intra), C9-C43 (intra), C88-C92 (intra)
notes: as for B1
Kd [13]: 5.98 nM | Kd [2]: 5.98 nM

B12: SEQ ID NO: 308, cysteine pairs C8-C9^a (designed binder)
chain: NSKDPKACCVPTELSAPSPLYLDENEKPVLKNYQDMVVHGCGCRGQAKRKGYKRLKSSCKRHPLYVDFKDVGWNDHAVAPPGYHAFYCHGECPFPLADHLNSDNHAIVQTKVNSV
modifications: disulfides C8-C9 (intra)
Kd [14]: 31.2 nM | Kd [2]: 31.2 nM

B13: SEQ ID NO: 268, cysteine pairs C23-C27^a, C65-C65^b, C79-C112^b, C80-C114^b (designed binder)
chain: VDFSDVGWNDWIVAPPGYHAFYCHGECPFPLADHLNSTNHAIVQTLVNSVAQAKHKQRKRLKSSCKRHPLYNSKIPKACCVPTELSAISMLYLDENEKVVLKNYQDMVVEGCGCR
modifications: disulfides C23-C27 (intra), C65-C65 (inter), C79-C112 (inter), C80-C114 (inter)
notes: as for B1
Kd [15]: 7.96 nM | Kd [2]: 7.96 nM

B14: SEQ ID NO: 300, cysteine pairs C23-C27^a, C65-C65^b, C79-C112^a, C80-C114^a (designed binder)
chain: VDFKDVGWNDHAVAPPGYHAFYCHGECPFPLADHLNSDNHAIVQTKVNSVGQAKRKGYKRLKSSCKRHPLYNSKDPKACCVPTELSAPSPLYLDENEKPVLKNYQDMVVHGCGCR
modifications: disulfides C23-C27 (intra), C65-C65 (inter), C79-C112 (intra), C80-C114 (intra)
notes: as for B1
Kd [16]: 5.14 nM | Kd [2]: 5.14 nM

B15: SEQ ID NO: 300, cysteine pairs C23-C27^a, C65-C65^b, C79-C114^a, C80-C112^a (designed binder)
chain: VDFKDVGWNDHAVAPPGYHAFYCHGECPFPLADHLNSDNHAIVQTKVNSVGQAKRKGYKRLKSSCKRHPLYNSKDPKACCVPTELSAPSPLYLDENEKPVLKNYQDMVVHGCGCR
modifications: disulfides C23-C27 (intra), C65-C65 (inter), C79-C114 (intra), C80-C112 (intra)
notes: as for B1
Kd [17]: 7.37 nM | Kd [2]: 7.37 nM
